T1: extracellular domain of hIFNgR2 (human, UniProt P38484 28-247)
T1 construct: also called hIFNgR2 ECD; hIFNgR2-ECD
T1 sequence: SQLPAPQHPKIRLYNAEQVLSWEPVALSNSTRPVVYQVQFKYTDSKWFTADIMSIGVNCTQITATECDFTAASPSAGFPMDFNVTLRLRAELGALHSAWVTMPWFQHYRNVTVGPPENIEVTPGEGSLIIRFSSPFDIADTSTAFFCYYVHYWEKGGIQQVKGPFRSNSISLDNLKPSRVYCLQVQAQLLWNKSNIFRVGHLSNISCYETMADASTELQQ

T2: extracellular domain of mIFNgR2 (mouse)
T2 construct: also called mIFNgR2 ECD; mouse IFNgR2 extracellular domain
T2 chain: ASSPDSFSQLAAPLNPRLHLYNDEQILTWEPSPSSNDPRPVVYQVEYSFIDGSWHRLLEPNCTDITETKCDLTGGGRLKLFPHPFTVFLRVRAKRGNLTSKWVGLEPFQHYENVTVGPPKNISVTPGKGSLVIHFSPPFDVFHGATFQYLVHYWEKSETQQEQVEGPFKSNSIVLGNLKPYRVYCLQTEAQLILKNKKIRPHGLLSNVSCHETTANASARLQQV

B1: DR930 (VHH)
VHH: EVQLVESGGGLVQAGGSLRLSCTVSGRTFSSYAVAWFRQAPGNVRELAAALSRGGGSAYYTDSVKGRFTISRDNAKNTVYLQMNSLKPEDTAVYYCAARNYDGTYYQENQYNYWGQGTQVTVSS
B2: DR931 (VHH)
VHH: QVQLVESGGGLVQAGGSLLLSCAASGRTFSTYAMGWFRQAPGKERMFVAAISVNGGSTYYADSVTGRFTISRDNAKNTMYLQMNNLKPGDTAVYYCAARRPYPGSDFLTWASYDYRGQGTLVTVSS
B3: DR934 (VHH)
VHH: QVQLVESGGGLVQAGGSLRLSCAASGRSFANYAMGWFRQAPGKERETVAAISRGGGSTWYADSVKGRFTISKDNAKNTVYLQMNSLKPEDTAIYYCAARSYSGSYTYSFGEYDYWGQGTQVTVSS
B4: DR932 (VHH)
VHH: QVQLVESGGGLVQAGGFLRLSCAASGRTFSYTTIGWFRQAPGKEREFVAVISAGGGSRDYADALKGRFTISRDNAKKMVYLQMNNLKPEDTAVYYCAVRRNTDTYTTTGDYDYWGQGTQVTVSS
B5: DR933 (VHH)
VHH: QVQLVESGGGLVQPGDSLRLSCVASGGTISSLAMGWFRQAPGKEREFVAAISWSGRSTYYVDSVKGRFTISTDNAKNTVYLQMNSLKPEDTAVYYCVAGEDGHSEYDYWGQGTQVTVSS
B6: DR935 (VHH)
VHH: QVQLVESGGGLVQAGGSLRLSCAASGRAFSTYALGWFRQAPGKEREFIAAISRGGGSTDYADSVKGRFTISRDNAKSTVYLQMNSLKPEDTAVYYCAARSYSSSYYYSQYEYDYWGQGTQVTVSS
B7: DR957 (VHH)
VHH: QVQLVESGGGLVQAGGSLRLSCAPSGRTFSSYAMAWFRQPPGKEREFVAAITVSGASTYYADSVKGRFTISRDNAKNSMYLQMNSLKPEDTAVYYCAAGGPGTIFPDYDYWGQGTQVTVSS
B8: DR947 (VHH)
VHH: QVQLVESGGGLVQAGGSLRLSCAASGGSFGRYTMGWYRQAPGKEREFVAVISWSGTNTYYADSVKGRFTISRDNAKNTMYLQMNDLKPEDTAVYYCAARETYYSHWDERMEYDYWGQGTQVTVSS
B9: DR948 (VHH)
VHH: QVQLVESGGGLVQAGDSLRLSCVASGSIDSSYYVSWFRQAPGKERDLVAAINWGDSRTAYADSVKGRFTISRDNAKNTVYLQMHSLRPNDTAVYYCASRIGLGGPVVAAPTRYPYWGQGTLVTVSS
B10: DR950 (VHH)
VHH: QVQLVESGGGLVQAGGSLRLSCAASGLTTSSAALAWFRQAPGKERELDPTITSGGGSTYYADSVKGRFTISKDNAKNTLYLQMSSLKPEDTAVYYCAARFYSTTYYYREHEYSDWGQGTQVTVSS
B11: DR952 (VHH)
VHH: QVQLVESGGGLVQAGGFLRLSCAASGRTFSSLAMAWFRQAPGKEREFVAAISRSGGSTDYADSVKGRFTISRDNAKSTLYLQMSSLKPEDTAVYYCAARDYSTLQYYNEYEYSDWGQGTLVTVSS
B12: DR929 (VHH)
VHH: QVQLVESGGGLVQAGGSLRLSCVASGRTFSSYAMGWFRQTPGKEREFVSAISRGGGSTDYADSVKGRFTISRDNAKNTVYLQMNNLKSEDTAVYYCALRAYSGRYYQFLEYDYWGQGTQVTVSS
B13: DR949 (VHH)
VHH: QVQLVESGGGLVQAGGSLRLSCAASESILRFNVMSWLRQAPGKQRELVAVITSGGSTNYADSVKGRFTISRDNAKNTVYLQMNSLKPEDTAVYYCAADESGQYYWGQGTQVTVSS
B14: DR953 (VHH)
VHH: QVQLVESGGGLVQAGDSLRLSCAASGPTFSTYAMAWFRQAPGKEREFVAAITQSGRTTYYEDSVKGRFTISKDNAKNTLYLQMNSLQPEDTAVYYCAARDLWSDSPDDWRIYSFWGQGTQVTVSS
B15: DR956 (VHH)
VHH: EVQLVESGGGLVQAGGSLRLSCAASGRTFSSLAMAWFRQAPGKEREFVAATTILGGSADYGDPVKGRFTISRDNAKNTVYLQMNSLKPEDTAVYYCTGRRPAPSDNYWSPASYAYWGQGTQVTVSS
B16: DR946 (VHH)
VHH: QVQLVESGGGLVQPGESLRLSCAASGPFTRYAMGWFRQAPGKEREFVAAISWSSGNTYYVDSVKGRFTISRDNAKNTMYLQMNSLKPEDTAVYYCAANEVATMSGPDDYWGQGTQVTVSS
B17: DR958 (VHH)
VHH: QVQLVESGGGLVQAGDSLTLSCTASGRTFSGYNMGWFRQAPGKERDFVAAINWIGGATYYADSVKGRFTISRDNAKNTVYLQMNSLKPEDTAVYYCHRYSEKFYSGKDYYTRDYDYWGQGTQVTVSS
B18: DR954 (VHH)
VHH: QVQLVESGGGLVQAGGSLRLSCAAARRTLHNFAMAWFRQAPGKEREFVAAISKGGGSADYADSVKGRFTISRDNAKNTVYLQMNSLKPEDTAVYYCAANDLASYSDSSYTSTSRYDYWGQGTQVTVSS
B19: DR955 (VHH)
VHH: QVQLVESGGGLVQTGGSLRLSCAASGRTFSSYAMAWFRQAPGKEREFVAAISILGGSADYEDSVQGRFTISRDNAKNTMYLQMNSLKPEDTAVYYCAARRPAPSDSYWSSTSYAYWGQGTLVTVSS
B20: DR951 (VHH)
VHH: QVQLVESGGGLVQAGGSLRLSCAASGRTFGTSFGSLSMGWFRQAPGKEREFVAAISRNIGRTYYADSVKDRFTISRDNAKNTASLQMNSLEPEDTAVYNCAATNSYDDLRRSYAYDYWGQGTQVTVSS

biological target: T1, extracellular domain of hIFNgR2; test: flow cytometry

binding result | Binder
binds | B1
binds | B2
binds | B3
binds | B4
binds | B5
binds | B6

Biological target: T2, extracellular domain of mIFNgR2
Test: flow cytometry, cross-reactivity

binding result | Binder
binds | B1
binds | B7
binds | B2
binds | B8
binds | B9
binds | B10
binds | B11
binds | B12
binds | B3
binds | B4
binds | B13
binds | B14
binds | B15
binds | B5
binds | B6
binds | B16
binds | B17
binds | B18
binds | B19
binds | B20

biological target: T1, extracellular domain of hIFNgR2; test: phage biopanning and periplasmic extract ELISA (PE-ELISA)
Protocol: Upon completion of the biopanning of Example 3, three 96-well plates of individual phage clones were isolated in order to perform periplasmic extract ELISA (PE-ELISA) on IFNgR2 coated plates to identify positive VHH binders that selectively bound IFNgR2. A 96-well plate was coated with IFNgR2 and PBS under the same conditions. Next, wells were blocked at 37° C. for 1 h. Then, 100 μl of extracted antibodies was added to each well and incubated for 1 h. Subsequently, 100 μl of anti-tag polyclonal antibody conjugated to HRP was added to each well and incubated at 37° C. for 1 h. Plates were developed with TMB substrate. The reaction was stopped by the addition of H2SO4. Absorbance at 450 nm was read on a microtiter plate reader. Antibodies with absorbance of the antigen-coated well at least threefold greater than PBS-coated control were considered to provide specific binding to IFNgR2. Positive clones were sequenced, and sequences analyzed to identify unique clonotypes

binding result | Binder
binds | B7
binds | B8
binds | B9
binds | B10
binds | B11
binds | B12
binds | B13
binds | B14
binds | B15
binds | B16
binds | B17
binds | B18
binds | B19
binds | B20

From patent publication US20230279128A1 (SYNTHEKINE, published 2023)
